Test results published in US20140087995A1 (published 2014).
Numbered stars: 1 amine (or outer) side, 2 acyl side, 3 side chain; on linkers, the order of the positions; unused ones are H or OH. Bridge positions count the residues as written; N and C are the ends. Side chains are listed from the residue outwards. Ends that are not written are not given here. * marks the point of attachment. C20 diacid = O=C(O)CCCCCCCCCCCCCCCCCCC(=O)*; γGlu = O=C(O)[C@H](CCC(=O)[*:2])N[*:1]

T1: human amylin receptor (human, UniProt P30988 25-474; O60896 24-148, limits assumed)
T1 construct: whole, on cells; Used as cell membranes prepared from the Amylin 3(a)/CRE-luc BHK cells (Assay V); also called hAmylin-R; hAmylinR
T1 sequence (looked up) 1: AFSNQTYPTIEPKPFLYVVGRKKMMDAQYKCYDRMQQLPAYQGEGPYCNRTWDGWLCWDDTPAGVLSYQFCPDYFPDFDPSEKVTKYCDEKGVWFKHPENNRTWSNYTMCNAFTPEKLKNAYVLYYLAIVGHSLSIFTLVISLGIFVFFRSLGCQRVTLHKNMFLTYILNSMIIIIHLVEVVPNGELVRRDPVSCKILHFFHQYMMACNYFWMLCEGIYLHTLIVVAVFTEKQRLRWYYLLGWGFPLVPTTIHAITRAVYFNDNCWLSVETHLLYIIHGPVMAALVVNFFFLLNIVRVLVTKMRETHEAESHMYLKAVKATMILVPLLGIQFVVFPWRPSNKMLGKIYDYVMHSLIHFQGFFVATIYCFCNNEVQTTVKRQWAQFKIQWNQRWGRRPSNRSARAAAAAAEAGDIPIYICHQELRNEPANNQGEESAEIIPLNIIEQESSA
T1 sequence (looked up) 2: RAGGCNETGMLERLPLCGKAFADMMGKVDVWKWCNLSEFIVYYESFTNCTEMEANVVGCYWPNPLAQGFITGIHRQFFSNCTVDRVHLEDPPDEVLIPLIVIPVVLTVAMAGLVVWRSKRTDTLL

T2: human amylin receptor (Amylin 3(a) receptor: human calcitonin receptor co-expressed with RAMP-3) (human, UniProt P30988 25-474; O60896 24-148, limits assumed)
T2 construct: whole, on cells; Used as cell membranes prepared from the Amylin 3(a)/CRE-luc BHK cells (Assay V); the complex is called the human amylin receptor; also called hAmylin-R; hAmylinR
T2 sequence (looked up) 1: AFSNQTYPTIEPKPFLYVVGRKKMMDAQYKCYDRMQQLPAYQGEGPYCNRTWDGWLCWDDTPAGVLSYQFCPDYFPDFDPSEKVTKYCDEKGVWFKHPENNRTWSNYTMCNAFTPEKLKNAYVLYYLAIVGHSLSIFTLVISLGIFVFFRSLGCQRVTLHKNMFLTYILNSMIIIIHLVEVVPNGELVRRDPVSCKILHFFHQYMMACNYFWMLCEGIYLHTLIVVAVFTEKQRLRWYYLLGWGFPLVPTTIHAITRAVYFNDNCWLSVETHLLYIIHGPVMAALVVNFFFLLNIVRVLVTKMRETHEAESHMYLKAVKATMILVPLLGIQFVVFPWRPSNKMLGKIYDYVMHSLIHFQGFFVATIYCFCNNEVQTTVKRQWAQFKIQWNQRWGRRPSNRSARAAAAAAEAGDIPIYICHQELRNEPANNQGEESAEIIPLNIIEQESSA
T2 sequence (looked up) 2: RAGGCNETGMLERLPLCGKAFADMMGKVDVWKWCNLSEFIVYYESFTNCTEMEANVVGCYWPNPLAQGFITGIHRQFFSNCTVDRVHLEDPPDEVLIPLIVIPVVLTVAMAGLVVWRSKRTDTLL


Experiments:
human amylin receptor = molecular target: T1, human amylin receptor; test: SPA competition vs 125I-rat amylin, membranes of amylin 3(a) receptor BHK cells (Assay V)
Description: The binding assay was performed using scintillation proximity assay (SPA) beads (RPNQ0001) from PerkinElmer and cell membranes from the Amylin 3(a)/CRE-luc cells (as described in Assay (II)) were used. Membranes were prepared in the following way; the cells were rinsed with PBS and incubated with Versene for approximately 5 min before harvesting. The cells were flushed with PBS and the cell-suspension was centrifuged for 5 min at 1000 rpm. Cells were homogenized (ultrathurrax) in a buffer containing 20 mM Na-HEPES and 10 mM EDTA (pH 7.4) and centrifuged at 20.000 rpm for 15 min. The resulting pellet was resuspended, homogenized and centrifuged (20.000 rpm, 15 min) in a buffer containing 20 mM Na-HEPES and 0.1 mM EDTA (pH 7.4, buffer 2). The resulting pellet was resuspended in buffer 2 and protein concentration was measured (BCA protein Assay, Pierce). The homogenate was kept cold during the whole procedure. The membranes were kept at −80° C. until use. The assay was performed in a 384 well Optiplate (PerkinElmer) in a total volume of 40 ul. Membranes were mixed with SPA beads. Final concentration of membranes 35 ng/μL final and SPA beads was 0.05 mg/well. Test-compounds were dissolved in DMSO and further diluted in assay buffer (50 mM Hepes, pH 7.4, 1 mM CaCl2, 5 mM MgCl₂, 0.1% OA and 0.02% Tween20). […] The final mixture was incubated with shaking at 400 rpm for 120 min at 25° C. prior to centrifugation (1500 rpm, 10 min). Samples were analyzed on TopCounter™ (Packard). The IC₅₀ was calculated using (one site binding competition analysis) GraphPad Prism5 as a measure of receptor affinity.

[1] = molecular target: T2, human amylin receptor (Amylin 3(a) …); test: SPA competition binding, displacement of 125I-rat amylin from membranes of BHK cells with human calcitonin receptor + RAMP-3 (Assay V)
Procedure, shortened: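 Cell membranes were prepared by homogenisation in Na-HEPES/EDTA buffer, pH 7.4, and stored at −80° C. They were then coupled to SPA beads at 35 ng/μL final and exposed to compounds in assay buffer containing CaCl2, MgCl₂, OA and Tween20. After 120 min at 25° C, plates were counted and IC₅₀ derived.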

Row | Binder | IC50 (human amylin receptor) [pM] | IC50 [1] [pM]
1 | {C20 diacid-γGlu-γGlu}-KCNTATCATQRLAEFLRHSSPNFGAIPSSTNVGSNTY-NH2 (disulfide 2-7; SMILES CC[C@H](C)[C@H](NC(=O)[C@H](C)NC(=O)CNC(=O)[C@H](Cc1ccccc1)NC(=O)[C@H](CC(N)=O)NC(=O)[C@@H]1CCCN1C(=O)[C@H](CO)NC(=O)[C@H](CO)NC(=O)[C@H](Cc1c[nH]cn1)NC(=O)[C@H](CCCNC(=N)N)NC(=O)[C@H](CC(C)C)NC(=O)[C@H](Cc1ccccc1)NC(=O)[C@H](CCC(=O)O)NC(=O)[C@H](C)NC(=O)[C@H](CC(C)C)NC(=O)[C@H](CCCNC(=N)N)NC(=O)[C@H](CCC(N)=O)NC(=O)[C@@H](NC(=O)[C@H](C)NC(=O)[C@@H]1CSSC[C@H](NC(=O)[C@H](CCCCN)NC(=O)CC[C@H](NC(=O)CC[C@H](NC(=O)CCCCCCCCCCCCCCCCCCC(=O)O)C(=O)O)C(=O)O)C(=O)N[C@@H](CC(N)=O)C(=O)N[C@@H]([C@@H](C)O)C(=O)N[C@@H](C)C(=O)N[C@@H]([C@@H](C)O)C(=O)N1)[C@@H](C)O)C(=O)N1CCC[C@H]1C(=O)N[C@@H](CO)C(=O)N[C@@H](CO)C(=O)N[C@H](C(=O)N[C@@H](CC(N)=O)C(=O)N[C@H](C(=O)NCC(=O)N[C@@H](CO)C(=O)N[C@@H](CC(N)=O)C(=O)N[C@H](C(=O)N[C@@H](Cc1ccc(O)cc1)C(N)=O)[C@@H](C)O)C(C)C)[C@@H](C)O, also called compound 15) | 597 | 
2 | KCNTATCATQRLAEFLRHSSPNFGAIPSSTNVGSNTY (C20 diacid-gGlu-2xOEG on alpha amino group of the N-terminal residue; Cys2-Cys7 disulfide and C-terminal amide as in h-amylin, also called compound 19) | 556 | 
3 | K([γGlu-γGlu-C20 diacid])CNTATCATQRLAEFLRHSSPNFGAIPSSTNVGPNTF-NH2 (disulfide 2-7; N-terminus assumed; SMILES CC[C@H](C)[C@H](NC(=O)[C@H](C)NC(=O)CNC(=O)[C@H](Cc1ccccc1)NC(=O)[C@H](CC(N)=O)NC(=O)[C@@H]1CCCN1C(=O)[C@H](CO)NC(=O)[C@H](CO)NC(=O)[C@H](Cc1c[nH]cn1)NC(=O)[C@H](CCCNC(=N)N)NC(=O)[C@H](CC(C)C)NC(=O)[C@H](Cc1ccccc1)NC(=O)[C@H](CCC(=O)O)NC(=O)[C@H](C)NC(=O)[C@H](CC(C)C)NC(=O)[C@H](CCCNC(=N)N)NC(=O)[C@H](CCC(N)=O)NC(=O)[C@@H](NC(=O)[C@H](C)NC(=O)[C@@H]1CSSC[C@H](NC(=O)[C@@H](N)CCCCNC(=O)CC[C@H](NC(=O)CC[C@H](NC(=O)CCCCCCCCCCCCCCCCCCC(=O)O)C(=O)O)C(=O)O)C(=O)N[C@@H](CC(N)=O)C(=O)N[C@@H]([C@@H](C)O)C(=O)N[C@@H](C)C(=O)N[C@@H]([C@@H](C)O)C(=O)N1)[C@@H](C)O)C(=O)N1CCC[C@H]1C(=O)N[C@@H](CO)C(=O)N[C@@H](CO)C(=O)N[C@H](C(=O)N[C@@H](CC(N)=O)C(=O)N[C@H](C(=O)NCC(=O)N1CCC[C@H]1C(=O)N[C@@H](CC(N)=O)C(=O)N[C@H](C(=O)N[C@@H](Cc1ccccc1)C(N)=O)[C@@H](C)O)C(C)C)[C@@H](C)O, modifications are with respect to human amylin) |  | 152
4 | K([γGlu-γGlu-C20 diacid])CNTATCATQRLAEFLRHSSNNPGAILSSTNVGPETY-NH2 (disulfide 2-7; N-terminus assumed; SMILES CC[C@H](C)[C@H](NC(=O)[C@H](C)NC(=O)CNC(=O)[C@@H]1CCCN1C(=O)[C@H](CC(N)=O)NC(=O)[C@H](CC(N)=O)NC(=O)[C@H](CO)NC(=O)[C@H](CO)NC(=O)[C@H](Cc1c[nH]cn1)NC(=O)[C@H](CCCNC(=N)N)NC(=O)[C@H](CC(C)C)NC(=O)[C@H](Cc1ccccc1)NC(=O)[C@H](CCC(=O)O)NC(=O)[C@H](C)NC(=O)[C@H](CC(C)C)NC(=O)[C@H](CCCNC(=N)N)NC(=O)[C@H](CCC(N)=O)NC(=O)[C@@H](NC(=O)[C@H](C)NC(=O)[C@@H]1CSSC[C@H](NC(=O)[C@@H](N)CCCCNC(=O)CC[C@H](NC(=O)CC[C@H](NC(=O)CCCCCCCCCCCCCCCCCCC(=O)O)C(=O)O)C(=O)O)C(=O)N[C@@H](CC(N)=O)C(=O)N[C@@H]([C@@H](C)O)C(=O)N[C@@H](C)C(=O)N[C@@H]([C@@H](C)O)C(=O)N1)[C@@H](C)O)C(=O)N[C@@H](CC(C)C)C(=O)N[C@@H](CO)C(=O)N[C@@H](CO)C(=O)N[C@H](C(=O)N[C@@H](CC(N)=O)C(=O)N[C@H](C(=O)NCC(=O)N1CCC[C@H]1C(=O)N[C@@H](CCC(=O)O)C(=O)N[C@H](C(=O)N[C@@H](Cc1ccc(O)cc1)C(N)=O)[C@@H](C)O)C(C)C)[C@@H](C)O, modifications are with respect to human amylin) |  | 1190

Second part, the binder after the results:

Row | IC50 (human amylin receptor) [pM] | IC50 [1] [pM] | Binder
5 |  | 76 | K([γGlu-γGlu-C20 diacid])CNTATCATQRLASFLRHSSPNFGAIPSSTNVGPETY-NH2 (disulfide 2-7; N-terminus assumed; SMILES CC[C@H](C)[C@H](NC(=O)[C@H](C)NC(=O)CNC(=O)[C@H](Cc1ccccc1)NC(=O)[C@H](CC(N)=O)NC(=O)[C@@H]1CCCN1C(=O)[C@H](CO)NC(=O)[C@H](CO)NC(=O)[C@H](Cc1c[nH]cn1)NC(=O)[C@H](CCCNC(=N)N)NC(=O)[C@H](CC(C)C)NC(=O)[C@H](Cc1ccccc1)NC(=O)[C@H](CO)NC(=O)[C@H](C)NC(=O)[C@H](CC(C)C)NC(=O)[C@H](CCCNC(=N)N)NC(=O)[C@H](CCC(N)=O)NC(=O)[C@@H](NC(=O)[C@H](C)NC(=O)[C@@H]1CSSC[C@H](NC(=O)[C@@H](N)CCCCNC(=O)CC[C@H](NC(=O)CC[C@H](NC(=O)CCCCCCCCCCCCCCCCCCC(=O)O)C(=O)O)C(=O)O)C(=O)N[C@@H](CC(N)=O)C(=O)N[C@@H]([C@@H](C)O)C(=O)N[C@@H](C)C(=O)N[C@@H]([C@@H](C)O)C(=O)N1)[C@@H](C)O)C(=O)N1CCC[C@H]1C(=O)N[C@@H](CO)C(=O)N[C@@H](CO)C(=O)N[C@H](C(=O)N[C@@H](CC(N)=O)C(=O)N[C@H](C(=O)NCC(=O)N1CCC[C@H]1C(=O)N[C@@H](CCC(=O)O)C(=O)N[C@H](C(=O)N[C@@H](Cc1ccc(O)cc1)C(N)=O)[C@@H](C)O)C(C)C)[C@@H](C)O, modifications are with respect to human amylin; also called compound 120)
6 |  | 69 | K([γGlu-γGlu-C20 diacid])CNTATCATQRLAEFLRHSSPNFGAILSSTPVGPETY-NH2 (disulfide 2-7 (inferred), modifications are with respect to human amylin)
7 |  | 140 | K([γGlu-C20 diacid])CNTATCATQRLAEFLRHSSPNFGAIPSSTNVGPETY-NH2 (disulfide 2-7; N-terminus assumed; SMILES CC[C@H](C)[C@H](NC(=O)[C@H](C)NC(=O)CNC(=O)[C@H](Cc1ccccc1)NC(=O)[C@H](CC(N)=O)NC(=O)[C@@H]1CCCN1C(=O)[C@H](CO)NC(=O)[C@H](CO)NC(=O)[C@H](Cc1c[nH]cn1)NC(=O)[C@H](CCCNC(=N)N)NC(=O)[C@H](CC(C)C)NC(=O)[C@H](Cc1ccccc1)NC(=O)[C@H](CCC(=O)O)NC(=O)[C@H](C)NC(=O)[C@H](CC(C)C)NC(=O)[C@H](CCCNC(=N)N)NC(=O)[C@H](CCC(N)=O)NC(=O)[C@@H](NC(=O)[C@H](C)NC(=O)[C@@H]1CSSC[C@H](NC(=O)[C@@H](N)CCCCNC(=O)CC[C@H](NC(=O)CCCCCCCCCCCCCCCCCCC(=O)O)C(=O)O)C(=O)N[C@@H](CC(N)=O)C(=O)N[C@@H]([C@@H](C)O)C(=O)N[C@@H](C)C(=O)N[C@@H]([C@@H](C)O)C(=O)N1)[C@@H](C)O)C(=O)N1CCC[C@H]1C(=O)N[C@@H](CO)C(=O)N[C@@H](CO)C(=O)N[C@H](C(=O)N[C@@H](CC(N)=O)C(=O)N[C@H](C(=O)NCC(=O)N1CCC[C@H]1C(=O)N[C@@H](CCC(=O)O)C(=O)N[C@H](C(=O)N[C@@H](Cc1ccc(O)cc1)C(N)=O)[C@@H](C)O)C(C)C)[C@@H](C)O, modifications are with respect to human amylin)
